For test [1], the target named is mouse VEGF (mouse) (UniProt Q00731). The test is described as follows: cell-based or functional assay.
The target of test [2] is rat VEGF (rat) (UniProt P16612). The test is described as follows: cell-based or functional assay.
Test [3] has as its target biotinylated VEGF165 (UniProt P15692). The test is described as follows: competition binding ELISA: blocks biotinylated VEGF165 binding to coated VEGFR1-Fc. Background: An ELISA detects its analyte on a solid surface through an enzyme-linked reagent.
Test [4] has the same target. The test is described as follows: competition binding ELISA: biotinylated VEGF165 premixed with the binder, then on coated VEGFR1-Fc (blocked partner), OD 450 nm.
Test [5] addresses mouse VEGF (mouse) (UniProt Q00731). The test is described as follows: cell-based or functional assay. The source holds these as a separate data set.
In test [6] the target is rat VEGF (rat) (UniProt P16612). The test is described as follows: cell-based or functional assay. The source holds these as a separate data set.
Test [7] has as its target human VEGF (human) (UniProt P15692). The test is described as follows: cell-based or functional assay.
For test [8] the target is unchanged. The test is described as follows: cell-based or functional assay. The source holds these as a separate data set.
The target of test [9] is LRP6 on HEK293S cells (human) (UniProt O75581). The test is described as follows: cell-based or functional assay.
LRP6 on HEK293S cells (human), sequence (O75581 20-1613): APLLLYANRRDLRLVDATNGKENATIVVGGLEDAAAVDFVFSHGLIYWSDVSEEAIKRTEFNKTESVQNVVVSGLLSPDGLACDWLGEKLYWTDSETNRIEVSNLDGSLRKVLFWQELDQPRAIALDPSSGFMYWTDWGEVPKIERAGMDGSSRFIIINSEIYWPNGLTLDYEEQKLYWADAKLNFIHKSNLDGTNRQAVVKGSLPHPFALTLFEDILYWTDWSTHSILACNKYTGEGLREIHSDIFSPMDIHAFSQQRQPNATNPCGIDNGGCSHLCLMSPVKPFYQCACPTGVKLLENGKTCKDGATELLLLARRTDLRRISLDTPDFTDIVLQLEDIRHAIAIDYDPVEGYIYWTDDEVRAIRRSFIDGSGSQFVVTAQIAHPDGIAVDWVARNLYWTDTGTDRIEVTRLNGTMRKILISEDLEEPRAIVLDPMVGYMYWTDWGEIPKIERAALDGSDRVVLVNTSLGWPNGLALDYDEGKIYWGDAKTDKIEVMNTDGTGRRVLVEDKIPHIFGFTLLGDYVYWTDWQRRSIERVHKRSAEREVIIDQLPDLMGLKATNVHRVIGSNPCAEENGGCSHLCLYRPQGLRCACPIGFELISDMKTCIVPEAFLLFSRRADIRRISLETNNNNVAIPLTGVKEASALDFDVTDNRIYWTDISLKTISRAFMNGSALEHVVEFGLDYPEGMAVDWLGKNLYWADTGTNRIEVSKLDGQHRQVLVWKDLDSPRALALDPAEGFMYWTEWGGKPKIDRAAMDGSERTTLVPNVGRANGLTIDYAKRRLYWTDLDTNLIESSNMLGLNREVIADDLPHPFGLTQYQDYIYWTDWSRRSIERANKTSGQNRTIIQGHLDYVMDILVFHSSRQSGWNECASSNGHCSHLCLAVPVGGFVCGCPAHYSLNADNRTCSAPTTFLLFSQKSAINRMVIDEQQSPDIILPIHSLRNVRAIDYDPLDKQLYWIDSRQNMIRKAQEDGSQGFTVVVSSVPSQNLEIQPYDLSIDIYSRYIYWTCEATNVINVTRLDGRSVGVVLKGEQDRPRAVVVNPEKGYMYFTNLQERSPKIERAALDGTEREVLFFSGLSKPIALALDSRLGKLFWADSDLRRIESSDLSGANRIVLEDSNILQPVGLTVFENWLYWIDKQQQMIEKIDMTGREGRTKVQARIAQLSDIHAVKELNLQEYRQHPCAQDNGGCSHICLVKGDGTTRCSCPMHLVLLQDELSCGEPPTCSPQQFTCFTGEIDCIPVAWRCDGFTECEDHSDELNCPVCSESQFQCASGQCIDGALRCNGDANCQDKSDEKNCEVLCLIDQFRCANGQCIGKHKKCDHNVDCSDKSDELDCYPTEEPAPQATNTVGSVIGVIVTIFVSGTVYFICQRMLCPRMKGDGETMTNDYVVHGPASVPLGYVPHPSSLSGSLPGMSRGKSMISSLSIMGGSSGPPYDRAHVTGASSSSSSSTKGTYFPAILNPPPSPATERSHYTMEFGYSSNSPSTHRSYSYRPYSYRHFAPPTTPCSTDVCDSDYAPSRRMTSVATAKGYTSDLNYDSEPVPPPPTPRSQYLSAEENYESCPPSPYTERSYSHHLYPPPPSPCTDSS

Consider three substances from patent US20170174733A1.

pIC50: −log10 of the molar value. Where two headings read alike, the source gives them in different places.

human VEGF (human), sequence (P15692 other isoform, or with tags, fused parts or gaps limits assumed): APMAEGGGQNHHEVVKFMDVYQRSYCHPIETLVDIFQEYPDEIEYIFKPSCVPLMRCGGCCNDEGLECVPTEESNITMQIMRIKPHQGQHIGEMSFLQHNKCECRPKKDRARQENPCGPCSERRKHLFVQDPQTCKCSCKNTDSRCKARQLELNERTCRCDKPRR
biotinylated VEGF165, sequence (P15692 other isoform, or with tags, fused parts or gaps limits assumed): as above
rat VEGF (rat), sequence (P16612 other isoform, or with tags, fused parts or gaps limits assumed): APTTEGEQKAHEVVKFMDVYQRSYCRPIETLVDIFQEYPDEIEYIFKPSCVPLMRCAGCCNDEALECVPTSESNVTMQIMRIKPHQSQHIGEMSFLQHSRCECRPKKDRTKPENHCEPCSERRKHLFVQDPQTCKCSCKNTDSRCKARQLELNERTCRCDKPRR
mouse VEGF (mouse), sequence (Q00731 other isoform, or with tags, fused parts or gaps limits assumed): as the sequence (P16612 other isoform, or with tags, fused parts or gaps limits assumed) above, with A10S, V14I, V75I counted along it

One may read the pIC50 as the IC50 on a negative log10 scale, so that one unit is a factor of ten. A lower pIC50 goes with a high IC50. On to G6 anti-VEGF antibody, for which the Inhibitory activity (IC50, nM) against VEGF in cell-based assays worked out at 0.19 nM with mouse VEGF (mouse) [1]; 0.078 nM with rat VEGF (rat) [2]; 0.12 nM with mouse VEGF (mouse) [5]; 0.13 nM with rat VEGF (rat) [6]; 0.21 nM with human VEGF (human) [7]. In addition, the negative-log IC50 (pIC50) with biotinylated VEGF165 [3] is 9.60; with biotinylated VEGF165 [4], 9.70. This substance yielded an Inhibitory Activity (IC50, nM) against hVEGF in cell-based assays with human VEGF (human) [7] of 0.14 nM.

In the case of Lucentis (Fab), the Inhibitory activity (IC50, nM) against VEGF in cell-based assays with human VEGF (human) [8] was 0.63 nM. In the test with human VEGF (human) [7], this substance gave an Inhibitory Activity (IC50, nM) against hVEGF in cell-based assays of 0.68 nM.

anti-LRP6 inhibitory antibody YW210.09: in test [9], the IC50, inhibition of Wnt1 signaling (luciferase reporter, HEK293S cells transfected by WNT1) is 28 nM.
